Reference: patent US12098206B2, “PDGF receptor antibody and use thereof” (Seoul National University R&DB Foundation, priority 2018, dated 2024)
“Also recorded” adds a separate entry of the source.

T1: mPDGFR-β (Mus musculus, UniProt P05622)
T1 construct: mPDGFR-β
T1 sequence (P05622 32-530): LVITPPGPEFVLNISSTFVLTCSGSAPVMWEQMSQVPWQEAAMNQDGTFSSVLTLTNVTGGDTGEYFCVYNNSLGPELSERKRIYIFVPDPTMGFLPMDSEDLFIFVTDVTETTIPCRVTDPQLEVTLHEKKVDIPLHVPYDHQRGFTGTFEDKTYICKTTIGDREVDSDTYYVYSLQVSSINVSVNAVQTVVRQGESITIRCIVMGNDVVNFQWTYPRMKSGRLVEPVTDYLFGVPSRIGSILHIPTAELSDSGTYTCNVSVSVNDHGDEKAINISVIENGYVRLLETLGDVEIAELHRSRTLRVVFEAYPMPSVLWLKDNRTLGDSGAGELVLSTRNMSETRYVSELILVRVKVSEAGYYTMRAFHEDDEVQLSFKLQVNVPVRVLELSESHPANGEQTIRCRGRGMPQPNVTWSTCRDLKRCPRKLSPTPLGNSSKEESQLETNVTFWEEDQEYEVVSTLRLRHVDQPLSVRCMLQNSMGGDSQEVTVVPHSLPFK

B1: PRb-CN26: anti-hPDGFR-β scFv clone (VH SEQ ID NO 55, VL SEQ ID NO 56), tested as scFv-Cκ-anti-cotinine scFv bispecific antibody (antibody, V domains shown)
VH: AVTLDESGGGLQTPGGGLSLVCKASGFTFSDRGIHWVRQAPGKGLEWVAGIGNTGSYTAYAPAVKGRATISRDNGQSTVRLQLNNLRAEDTATYYCAKRGFMDAGGIDAWGHGTEVIVSSTS
VL: LTQPSSVSANPGETVKITCSGGGSYAGSYYYGWYQQKSPGSAPVTVIYDNTNRPSNIPSRFSGSLSGSTDTLTITGVQAEDEAVYFCGGYDGISDTGIFGAGTTLTVL
modifications: VH of PRb-CN26; VL of PRb-CN26
B2: PRb-CN16: anti-hPDGFR-β scFv clone (VH SEQ ID NO 39, VL SEQ ID NO 40), tested as scFv-Cκ-anti-cotinine scFv bispecific antibody (antibody, V domains shown)
VH: AVTLDESGGGLQTPGTALSLVCKASGFTFSSFNMAWVRQAPGKGLEFVGEISNTAGSTFYAPAVKGRATISRDNGQSTVRLQLNNLRAEDTAIYYCAKAAGTCYSHSCTGYIDAWGHGTEVIVSSTS
VL: LTQPSSVSANPGETVKITCSGSSSSYGWYQQKSPGSAPVTLIYENNQRPSNIPSRFSGSKSGSTGTLTITGVQAEDEAVYYCGNADRSNSAGTFGAGTTLTVL
modifications: VH of PRb-CN16; VL of PRb-CN16
B3: PRb-CN32: anti-hPDGFR-β scFv clone (VH SEQ ID NO 47, VL SEQ ID NO 48), tested as scFv-Cκ-anti-cotinine scFv bispecific antibody (antibody, V domains shown)
VH: AVTLDESGGGLQTPRGTLSLVCKASGFTFSSFNMFWVRQAPGKGLEFVAGISTTGRYTGYGSAVQGRGTISRDNGQSTVRLQLNNLRAEDTGTYYCAKSAGSTYSYWDSDAGLIDAWGHGTEVIVSSTS
VL: LTQPSSVSANLGETVKITCSGGSNAGSYYYGWYQQKSPGSAPVTVIYSNNQRPSDIPSRFSGSTSGSTSTLTITGVQVDDEAVYFCGSGDSSSIAAFGAGTTLTVL
modifications: VH of PRb-CN32; VL of PRb-CN32

Legend:
[1] = target: T1, mPDGFR-β; test: Cross-species enzyme immunoassay, mPDGFR-β; type: binding; details: 100 nM; FIG. 17
Protocol: (§1) 100 ng of hPDGFR-β, mPDGFR-β, rhesus PDGFR-β (90215-C02H, Sino Biological Inc. Beijing, China), cynomolgus monkey PDGFR-β, Sus scrofa PDGFR-β-Fc chimera or TNF-α receptor extracellular domain-human Fc fusion protein was coated with 4° C. temperature O/N. After blocking the wells, sequential culture of the anti-hPDGFR-β scFv-Cκ-scFv fusion protein and the HRP conjugated anti-human Cκ antibody was followed in the same manner as in Example 3.
(§2) FIG. 17 is a graph showing an experiment of the cross-species reaction of the bispecific antibody against the anti-hPDGFR-β antibody according to the present invention. On the microtiter plates coated with hPDGFR-β, mPDGFR-β, Rhesus PDGFR-β, Cynomolgus monkey PDGFR-β, Sus scrofa PDGFR-β and control Fc coated, the bispecific antibody containing anti-hPDGFR-β antibody according to the present invention (100 nM) was reacted and the amount of bound bispecific antibody was measured using HRP conjugated anti-human Cκ antibody and TMB.

[2] = target: T2, hPDGFR-β and cotinine (Homo sapiens, UniProt P09619); test: Enzyme immunoassay, simultaneous binding to cotinine and hPDGFR-β; details: cotinine-BSA coated wells, then hPDGFR-β-Fc chimera; FIG. 12d
T2 construct: made in house
T2 sequence (P09619 33-531): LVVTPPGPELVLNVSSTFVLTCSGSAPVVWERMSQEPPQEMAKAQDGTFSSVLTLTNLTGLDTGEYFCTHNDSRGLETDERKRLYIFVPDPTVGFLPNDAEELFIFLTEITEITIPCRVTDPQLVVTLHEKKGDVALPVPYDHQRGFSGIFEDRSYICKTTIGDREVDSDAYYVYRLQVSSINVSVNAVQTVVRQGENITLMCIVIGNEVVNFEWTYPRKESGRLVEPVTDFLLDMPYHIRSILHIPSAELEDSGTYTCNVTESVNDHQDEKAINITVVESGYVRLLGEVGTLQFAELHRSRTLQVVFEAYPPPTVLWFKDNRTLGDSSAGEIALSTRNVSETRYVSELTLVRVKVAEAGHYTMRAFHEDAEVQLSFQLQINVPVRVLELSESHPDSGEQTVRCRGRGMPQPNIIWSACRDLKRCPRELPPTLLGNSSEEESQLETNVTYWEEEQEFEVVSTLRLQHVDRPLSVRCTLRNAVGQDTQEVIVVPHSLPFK
Protocol: In order to determine of the simultaneous binding ability of cotinine and hPDGFR-β, an anti-hPDGFR-β x cotinine scFv-Cκ-scFv fusion protein was cultured in wells coated with cotinine-BSA. Washing was performed for each process, and hPDGFR-β-Fc chimeric protein and HRP-anti human Fc antibody were incubated in order. The three kinds of bispecific antibody scFv-Cκ-scFv fusion proteins simultaneously bound to hPDGFR-β and cotinine (FIG. 12d).

[3] = tested on: Sus scrofa PDGFR-β; test: Cross-species enzyme immunoassay, Sus scrofa PDGFR-β; type: binding; details: 100 nM; FIG. 17
Sus scrofa PDGFR-β, sequence (as listed by the source): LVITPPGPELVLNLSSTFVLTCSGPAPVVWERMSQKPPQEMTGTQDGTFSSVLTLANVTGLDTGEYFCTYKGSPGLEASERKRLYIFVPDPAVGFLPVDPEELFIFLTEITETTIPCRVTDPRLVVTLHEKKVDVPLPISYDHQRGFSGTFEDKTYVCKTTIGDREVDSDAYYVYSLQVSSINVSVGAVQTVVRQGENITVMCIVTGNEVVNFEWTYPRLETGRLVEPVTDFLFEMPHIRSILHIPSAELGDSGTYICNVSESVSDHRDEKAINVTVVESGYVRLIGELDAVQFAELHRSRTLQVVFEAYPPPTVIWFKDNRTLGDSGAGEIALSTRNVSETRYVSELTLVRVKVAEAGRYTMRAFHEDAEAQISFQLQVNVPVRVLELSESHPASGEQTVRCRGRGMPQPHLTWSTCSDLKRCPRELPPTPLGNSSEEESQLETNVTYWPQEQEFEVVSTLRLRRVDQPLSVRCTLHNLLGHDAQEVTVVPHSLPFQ
Protocol: as §1, §2

[4] = tested on: A-431 cells; test: Cytotoxicity in A-431 cells not expressing hPDGFR-β; type: cell-based; details: complex with cot-duo (DAR4); FIG. 16
Protocol: FIG. 16 is a graph showing that cytotoxicity assays of bispecific antibody related with anti-hPDGFR-β antibody complexed with cot-duo complexes on the cells not expressing hPDGFR-β. A-431 cells were treated with anti-hPDGFR-β x cotinine fusion protein and cot-duo (DAR4). The cellular ATP levels were measured to determine relative cell viability. Bispecific anti-mCD154 x cotinine scFv-Cκ-scFv fusion protein was used as a negative control. DMSO was used as a vehicle control of cot-duo. Results are shown as the mean±SD acquired from three repetitive experiments.
All of the anti-hPDGFR-β x cotinine scFv-Cκ-scFv fusion proteins had not higher toxicity than the control antibody anti-mCD154 x cotinine scFv-Cκ-scFv fusion protein (FIG. 16). Therefore, as a result of anti-proliferative analysis result, the bispecific antibody/cot-duo complex had higher cytotoxicity in the human pericyte cell lines expressing hPDGFR-β, compared to the control anti-mCD154 x cotinine scFv-Cκ-scFv, but there was no difference in cytotoxicity in A-431 not expressing hPDGFR-β, compared to the control anti-mCD154 x cotinine scFv-Cκ-scFv.

[5] = target: PDGFR-β (Homo sapiens, UniProt P09619); test: Enzyme immunoassay on hPDGFR-β-Fc chimera coated plate; type: binding; design: made in house; details: 100 nM; FIG. 17
PDGFR-β, sequence (P09619 33-531): as the sequence (P09619 33-531) above
Protocol: 100 ng of hPDGFR-β-Fc chimera in the coating buffer or extracellular region of TNF-α receptor-human Fc fusion protein was coated on a microtiter plate at 4° C. O/N. Each well was blocked with 150 μL of 3% (w/v) BSA (bovine serum albumin) in PBS as a blocking agent at 37° C. for 1 hour. After treatment with various concentrations of bispecific antibodies of scFv-Cκ-scFv fusion protein (0.01 nM-1 μM), the analysis was performed in the same protocol of the concentration-dependent binding ability of anti-mPDGFRR-β scFv-Cκ-scFv fusion protein.
as §1

[6] = tested on: human pericyte cells; test: Internalization analysis by confocal microscopy in human pericyte cells; type: cell-based
Protocol: Human pericyte cells were treated with the diluted bispecific antibody scFv-Cκ-scFv (10 μg/mL) in pericyte growth medium supplemented with 10% FBS, and internalized at 37° C. for 30 minutes. The analysis was performed in the same manner according to the protocol of the confocal microscope of the anti-mPDGFR-β x cotinine scFv-Cκ-scFv fusion protein of Example 4. After the addition of hPDGF-BB (50 ng/mL) to the bispecific antibody scFv-Cκ-scFv fusion protein, the confocal microscopy experiments were performed according to the same protocol.
The internalization of the bispecific antibody scFv-Cκ-scFv fusion protein was visualized. After treatment of human pericyte cells with the fusion protein, antibodies bound to the cell surface were removed. After cell fixation, the fusion protein was stained with FITC-anti human Cκ antibody (green). To visualize early endosomes, the cells were stained with anti-Rab5 antibody and Alexa Fluor 546-goat anti-rabbit antibody IgG (red). […] DNA was stained with DAPI (blue)(Scale bar, 10 μm). FIG. 13d was repeated with hPDGF-BB.
To measure the cellular internalization of the bispecific antibody of scFv-Cκ-scFv, anti-hPDGFR-β x cotinine scFv-Cκ-scFv fusion protein was incubated in human pericyte cells, and then treated with FITC-anti-human Cκ antibody and endosome-specific antibody. It was imaged using a confocal microscope. […] When the images were merged, the present inventors confirmed that the fluorescence of the two antibody clones and the endosome-specific antibody were co-localized. […] Internalization of the antibody is very important for delivery of drug into the target cell. […] Therefore, it is useful for intracellular delivery of drug to patients with diseases.

[7] = 10 μg/mL, 37° C., 30 minutes, absence of hPDGF-BB, FIG. 13c
[8] = treated with hPDGF-BB (50 ng/mL), FIG. 13d

Molecule | cross-species binding, mPDGFR-β [1] | simultaneous binding to hPDGFR-β and cotinine [2] | cross-species binding, Sus scrofa PDGFR-β [3] | toxicity in A-431 cells compared to control anti-mCD154 x cotinine scFv-Cκ-scFv [4] | cross-species binding, hPDGFR-β [5] | cellular internalization [6, 7] | cellular internalization [6, 8]
B1 | confirmed to bind | capable of simultaneously binding hPDGFR-β and cotinine | confirmed to bind | equivalent cytotoxicity | confirmed to bind | not internalized | co-localized with endosome-specific antibody; also recorded: internalized in a large amount within 30 minutes
B2 | confirmed to bind | capable of simultaneously binding hPDGFR-β and cotinine | confirmed to bind | equivalent cytotoxicity | confirmed to bind | Intracellular fluorescence was detected | co-localized with endosome-specific antibody
B3 | confirmed to bind | capable of simultaneously binding hPDGFR-β and cotinine | confirmed to bind | equivalent cytotoxicity | confirmed to bind | Intracellular fluorescence was detected; also recorded: internalizes most effectively | co-localized with endosome-specific antibody
